8 molecules from patent US20190185537A1 (AstraZeneca / MedImmune, published 2019) can be followed below.

Experiment in all cases: cell-based or functional assay
Assay [1] concerns the target T1, human glucose-dependent insulinotropic peptide (gastric inhibitory polypeptide) receptor (human) (UniProt P48546).
T1 sequence (looked up): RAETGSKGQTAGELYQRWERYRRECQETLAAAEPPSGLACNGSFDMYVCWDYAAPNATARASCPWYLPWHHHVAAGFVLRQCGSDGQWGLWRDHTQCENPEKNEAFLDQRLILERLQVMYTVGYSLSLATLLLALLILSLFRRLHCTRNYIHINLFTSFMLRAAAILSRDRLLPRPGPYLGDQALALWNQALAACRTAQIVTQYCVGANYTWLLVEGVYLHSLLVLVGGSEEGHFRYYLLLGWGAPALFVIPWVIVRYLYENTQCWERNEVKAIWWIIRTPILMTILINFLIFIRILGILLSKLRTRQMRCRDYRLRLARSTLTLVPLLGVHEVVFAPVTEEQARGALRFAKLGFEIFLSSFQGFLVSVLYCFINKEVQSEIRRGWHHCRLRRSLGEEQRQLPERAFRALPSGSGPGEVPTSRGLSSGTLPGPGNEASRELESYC

For the next assay, the target named is human glucagon receptor (human, UniProt P47871 26-477).
The target of the next assay is human GLP-1 receptor (human, UniProt P43220 24-463).

Numbered stars: 1 amine (or outer) side, 2 acyl side, 3 side chain; on linkers, the order of the positions; unused ones are H or OH. Side chains are listed from the residue outwards. Ends that are not written are not given here. * marks the point of attachment. γGlu = O=C(O)[C@H](CCC(=O)[*:2])N[*:1]; Palmitoyl = CCCCCCCCCCCCCCCC(=O)*; Ahx = NCCCCCC(=O)O; βAla = NCCC(=O)O

Sequence of human GLP-1 receptor (P43220 24-463): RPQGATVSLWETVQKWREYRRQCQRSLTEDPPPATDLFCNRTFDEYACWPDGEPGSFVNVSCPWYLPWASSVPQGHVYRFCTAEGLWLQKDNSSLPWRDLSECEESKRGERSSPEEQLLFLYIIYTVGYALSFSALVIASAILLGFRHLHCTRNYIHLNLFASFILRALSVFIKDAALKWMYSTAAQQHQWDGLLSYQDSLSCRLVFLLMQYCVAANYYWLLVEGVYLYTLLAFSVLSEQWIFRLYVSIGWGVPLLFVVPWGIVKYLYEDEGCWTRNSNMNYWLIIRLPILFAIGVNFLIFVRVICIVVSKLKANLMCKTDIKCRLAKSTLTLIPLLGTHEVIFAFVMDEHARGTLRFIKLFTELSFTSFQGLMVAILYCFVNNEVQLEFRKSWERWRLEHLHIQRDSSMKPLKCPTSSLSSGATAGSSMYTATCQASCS
Sequence of human glucagon receptor (P47871 26-477): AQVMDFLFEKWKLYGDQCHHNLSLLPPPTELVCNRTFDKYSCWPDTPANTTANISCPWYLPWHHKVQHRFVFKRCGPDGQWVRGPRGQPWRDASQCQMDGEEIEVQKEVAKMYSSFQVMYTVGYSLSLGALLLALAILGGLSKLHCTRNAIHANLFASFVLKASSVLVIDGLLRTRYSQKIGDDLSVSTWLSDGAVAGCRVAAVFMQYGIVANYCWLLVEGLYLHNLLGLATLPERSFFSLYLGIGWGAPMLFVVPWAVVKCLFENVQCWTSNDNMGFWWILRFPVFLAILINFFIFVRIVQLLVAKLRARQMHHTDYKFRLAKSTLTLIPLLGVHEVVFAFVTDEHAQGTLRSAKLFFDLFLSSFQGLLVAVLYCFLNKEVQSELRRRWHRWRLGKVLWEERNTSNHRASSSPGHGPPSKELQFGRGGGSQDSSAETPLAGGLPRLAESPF

B1: g734 (peptide)
peptide: HSEGTFTSDYSEYLDSK([βAla-Palmitoyl])RARDFVAWLEAGG-NH2
modifications: N-terminus assumed
SMILES: CCCCCCCCCCCCCCCC(=O)NCCC(=O)NCCCC[C@H](NC(=O)[C@H](CO)NC(=O)[C@H](CC(=O)O)NC(=O)[C@H](CC(C)C)NC(=O)[C@H](Cc1ccc(O)cc1)NC(=O)[C@H](CCC(=O)O)NC(=O)[C@H](CO)NC(=O)[C@H](Cc1ccc(O)cc1)NC(=O)[C@H](CC(=O)O)NC(=O)[C@H](CO)NC(=O)[C@@H](NC(=O)[C@H](Cc1ccccc1)NC(=O)[C@@H](NC(=O)CNC(=O)[C@H](CCC(=O)O)NC(=O)[C@H](CO)NC(=O)[C@@H](N)Cc1c[nH]cn1)[C@@H](C)O)[C@@H](C)O)C(=O)N[C@@H](CCCNC(=N)N)C(=O)N[C@@H](C)C(=O)N[C@@H](CCCNC(=N)N)C(=O)N[C@@H](CC(=O)O)C(=O)N[C@@H](Cc1ccccc1)C(=O)N[C@H](C(=O)N[C@@H](C)C(=O)N[C@@H](Cc1c[nH]c2ccccc12)C(=O)N[C@@H](CC(C)C)C(=O)N[C@@H](CCC(=O)O)C(=O)N[C@@H](C)C(=O)NCC(=O)NCC(N)=O)C(C)C
Take B1: the cAMP EC50 (assay 1) turned out to be 1170 nM in assay [1], 82800 pM with human glucagon receptor and 69.5 pM with human GLP-1 receptor.

B2: g825 (peptide)
peptide: HSQGTFTSDYSEYLDSK([Ahx-Palmitoyl])RARDFVEWLENT-NH2
modifications: not fully specified
Regarding B2, the cAMP EC50 (assay 1) in assay [1] came out at 86.7 nM; in the assay with human glucagon receptor, 3.67 pM; in the assay with human GLP-1 receptor, 19.1 pM.

B3: g837 (peptide)
peptide: HSQGTFTSDYSEYLDSK([γGlu-Palmitoyl])RARDFVAWLEAGG-NH2
modifications: N-terminus assumed
SMILES: CCCCCCCCCCCCCCCC(=O)N[C@@H](CCC(=O)NCCCC[C@H](NC(=O)[C@H](CO)NC(=O)[C@H](CC(=O)O)NC(=O)[C@H](CC(C)C)NC(=O)[C@H](Cc1ccc(O)cc1)NC(=O)[C@H](CCC(=O)O)NC(=O)[C@H](CO)NC(=O)[C@H](Cc1ccc(O)cc1)NC(=O)[C@H](CC(=O)O)NC(=O)[C@H](CO)NC(=O)[C@@H](NC(=O)[C@H](Cc1ccccc1)NC(=O)[C@@H](NC(=O)CNC(=O)[C@H](CCC(N)=O)NC(=O)[C@H](CO)NC(=O)[C@@H](N)Cc1c[nH]cn1)[C@@H](C)O)[C@@H](C)O)C(=O)N[C@@H](CCCNC(=N)N)C(=O)N[C@@H](C)C(=O)N[C@@H](CCCNC(=N)N)C(=O)N[C@@H](CC(=O)O)C(=O)N[C@@H](Cc1ccccc1)C(=O)N[C@H](C(=O)N[C@@H](C)C(=O)N[C@@H](Cc1c[nH]c2ccccc12)C(=O)N[C@@H](CC(C)C)C(=O)N[C@@H](CCC(=O)O)C(=O)N[C@@H](C)C(=O)NCC(=O)NCC(N)=O)C(C)C)C(=O)O
Turning to B3, the cAMP EC50 (assay 1) turned out to be 114 nM in assay [1], 213 pM in the assay with human glucagon receptor and 467 pM with human GLP-1 receptor.

B4: g783 (peptide)
peptide: HSQGTFTSDYSEYLDSK([βAla-Palmitoyl])RARDFVAWLEAGG-NH2
modifications: N-terminus assumed
SMILES: CCCCCCCCCCCCCCCC(=O)NCCC(=O)NCCCC[C@H](NC(=O)[C@H](CO)NC(=O)[C@H](CC(=O)O)NC(=O)[C@H](CC(C)C)NC(=O)[C@H](Cc1ccc(O)cc1)NC(=O)[C@H](CCC(=O)O)NC(=O)[C@H](CO)NC(=O)[C@H](Cc1ccc(O)cc1)NC(=O)[C@H](CC(=O)O)NC(=O)[C@H](CO)NC(=O)[C@@H](NC(=O)[C@H](Cc1ccccc1)NC(=O)[C@@H](NC(=O)CNC(=O)[C@H](CCC(N)=O)NC(=O)[C@H](CO)NC(=O)[C@@H](N)Cc1c[nH]cn1)[C@@H](C)O)[C@@H](C)O)C(=O)N[C@@H](CCCNC(=N)N)C(=O)N[C@@H](C)C(=O)N[C@@H](CCCNC(=N)N)C(=O)N[C@@H](CC(=O)O)C(=O)N[C@@H](Cc1ccccc1)C(=O)N[C@H](C(=O)N[C@@H](C)C(=O)N[C@@H](Cc1c[nH]c2ccccc12)C(=O)N[C@@H](CC(C)C)C(=O)N[C@@H](CCC(=O)O)C(=O)N[C@@H](C)C(=O)NCC(=O)NCC(N)=O)C(C)C
For B4, the cAMP EC50 (assay 1) in assay [1] was determined as 846 nM; with human glucagon receptor it was 91.1 pM; with human GLP-1 receptor it was 42.4 pM.

B5: g588 (peptide)
peptide: HGQGTFTSDYSKYLDSK([γGlu-Palmitoyl])RAQDFVQWLERGG-NH2
modifications: N-terminus assumed
SMILES: CCCCCCCCCCCCCCCC(=O)N[C@@H](CCC(=O)NCCCC[C@H](NC(=O)[C@H](CO)NC(=O)[C@H](CC(=O)O)NC(=O)[C@H](CC(C)C)NC(=O)[C@H](Cc1ccc(O)cc1)NC(=O)[C@H](CCCCN)NC(=O)[C@H](CO)NC(=O)[C@H](Cc1ccc(O)cc1)NC(=O)[C@H](CC(=O)O)NC(=O)[C@H](CO)NC(=O)[C@@H](NC(=O)[C@H](Cc1ccccc1)NC(=O)[C@@H](NC(=O)CNC(=O)[C@H](CCC(N)=O)NC(=O)CNC(=O)[C@@H](N)Cc1c[nH]cn1)[C@@H](C)O)[C@@H](C)O)C(=O)N[C@@H](CCCNC(=N)N)C(=O)N[C@@H](C)C(=O)N[C@@H](CCC(N)=O)C(=O)N[C@@H](CC(=O)O)C(=O)N[C@@H](Cc1ccccc1)C(=O)N[C@H](C(=O)N[C@@H](CCC(N)=O)C(=O)N[C@@H](Cc1c[nH]c2ccccc12)C(=O)N[C@@H](CC(C)C)C(=O)N[C@@H](CCC(=O)O)C(=O)N[C@@H](CCCNC(=N)N)C(=O)NCC(=O)NCC(N)=O)C(C)C)C(=O)O
In the case of B5, the results for the cAMP EC50 (assay 1) (in assay [1]; with human glucagon receptor; with human GLP-1 receptor) were 98 nM, 72.3 pM and 110 pM, respectively.

B6: g838 (peptide)
peptide: HSQGTFTSDYSEYLDSK([Ahx-Palmitoyl])RARDFVAWLEAGG-NH2
modifications: N-terminus assumed
SMILES: CCCCCCCCCCCCCCCC(=O)NCCCCCC(=O)NCCCC[C@H](NC(=O)[C@H](CO)NC(=O)[C@H](CC(=O)O)NC(=O)[C@H](CC(C)C)NC(=O)[C@H](Cc1ccc(O)cc1)NC(=O)[C@H](CCC(=O)O)NC(=O)[C@H](CO)NC(=O)[C@H](Cc1ccc(O)cc1)NC(=O)[C@H](CC(=O)O)NC(=O)[C@H](CO)NC(=O)[C@@H](NC(=O)[C@H](Cc1ccccc1)NC(=O)[C@@H](NC(=O)CNC(=O)[C@H](CCC(N)=O)NC(=O)[C@H](CO)NC(=O)[C@@H](N)Cc1c[nH]cn1)[C@@H](C)O)[C@@H](C)O)C(=O)N[C@@H](CCCNC(=N)N)C(=O)N[C@@H](C)C(=O)N[C@@H](CCCNC(=N)N)C(=O)N[C@@H](CC(=O)O)C(=O)N[C@@H](Cc1ccccc1)C(=O)N[C@H](C(=O)N[C@@H](C)C(=O)N[C@@H](Cc1c[nH]c2ccccc12)C(=O)N[C@@H](CC(C)C)C(=O)N[C@@H](CCC(=O)O)C(=O)N[C@@H](C)C(=O)NCC(=O)NCC(N)=O)C(C)C
Consider B6, for which the cAMP EC50 (assay 1) was 84.3 nM in assay [1], 5.68 pM with human glucagon receptor and 23.7 pM in the assay with human GLP-1 receptor.

B7: g513 (peptide)
peptide: HSEGTFTSDYSKYLDSK([γGlu-Palmitoyl])RAQDFVQWLEAGG-NH2
modifications: N-terminus assumed
SMILES: CCCCCCCCCCCCCCCC(=O)N[C@@H](CCC(=O)NCCCC[C@H](NC(=O)[C@H](CO)NC(=O)[C@H](CC(=O)O)NC(=O)[C@H](CC(C)C)NC(=O)[C@H](Cc1ccc(O)cc1)NC(=O)[C@H](CCCCN)NC(=O)[C@H](CO)NC(=O)[C@H](Cc1ccc(O)cc1)NC(=O)[C@H](CC(=O)O)NC(=O)[C@H](CO)NC(=O)[C@@H](NC(=O)[C@H](Cc1ccccc1)NC(=O)[C@@H](NC(=O)CNC(=O)[C@H](CCC(=O)O)NC(=O)[C@H](CO)NC(=O)[C@@H](N)Cc1c[nH]cn1)[C@@H](C)O)[C@@H](C)O)C(=O)N[C@@H](CCCNC(=N)N)C(=O)N[C@@H](C)C(=O)N[C@@H](CCC(N)=O)C(=O)N[C@@H](CC(=O)O)C(=O)N[C@@H](Cc1ccccc1)C(=O)N[C@H](C(=O)N[C@@H](CCC(N)=O)C(=O)N[C@@H](Cc1c[nH]c2ccccc12)C(=O)N[C@@H](CC(C)C)C(=O)N[C@@H](CCC(=O)O)C(=O)N[C@@H](C)C(=O)NCC(=O)NCC(N)=O)C(C)C)C(=O)O
Regarding B7, the figures for the cAMP EC50 (assay 1) (in assay [1]; in the assay with human glucagon receptor; in the assay with human GLP-1 receptor) were 298 nM, 723 pM and 175 pM, respectively.

B8: g819 (peptide)
peptide: HSQGTFTSDYSKYLDSK([βAla-Palmitoyl])RARDFVAWLEAGG-NH2
modifications: N-terminus assumed
SMILES: CCCCCCCCCCCCCCCC(=O)NCCC(=O)NCCCC[C@H](NC(=O)[C@H](CO)NC(=O)[C@H](CC(=O)O)NC(=O)[C@H](CC(C)C)NC(=O)[C@H](Cc1ccc(O)cc1)NC(=O)[C@H](CCCCN)NC(=O)[C@H](CO)NC(=O)[C@H](Cc1ccc(O)cc1)NC(=O)[C@H](CC(=O)O)NC(=O)[C@H](CO)NC(=O)[C@@H](NC(=O)[C@H](Cc1ccccc1)NC(=O)[C@@H](NC(=O)CNC(=O)[C@H](CCC(N)=O)NC(=O)[C@H](CO)NC(=O)[C@@H](N)Cc1c[nH]cn1)[C@@H](C)O)[C@@H](C)O)C(=O)N[C@@H](CCCNC(=N)N)C(=O)N[C@@H](C)C(=O)N[C@@H](CCCNC(=N)N)C(=O)N[C@@H](CC(=O)O)C(=O)N[C@@H](Cc1ccccc1)C(=O)N[C@H](C(=O)N[C@@H](C)C(=O)N[C@@H](Cc1c[nH]c2ccccc12)C(=O)N[C@@H](CC(C)C)C(=O)N[C@@H](CCC(=O)O)C(=O)N[C@@H](C)C(=O)NCC(=O)NCC(N)=O)C(C)C
B8: the cAMP EC50 (assay 1) turned out to be 103 nM in assay [1], 2.34 pM with human glucagon receptor and 18 pM with human GLP-1 receptor.
